Experiments:
Test in all cases: cell-based or functional assay
[1] = target: T1, KRAS G12D 9-mer peptide KRAS8-16 … (SEQ ID NO: 34) presented by HLA-A11 on pulsed cells (human, UniProt A*11:01)
[2] = target: KRAS G12V 10-mer peptide … (SEQ ID NO: 33) presented by HLA-A11 on pulsed cells (human, UniProt A*11:01)
[3] = target: KRAS G12D 9-mer peptide KRAS7-15 … (SEQ ID NO: 124) presented by HLA-A11 on pulsed cells (human, UniProt A*11:01)
[4] = target: T2, WT KRAS 10-mer peptide (SEQ ID NO: 30) presented by HLA-A11 on pulsed cells (human, UniProt A*11:01)
[5] = target: T1, KRAS G12D 9-mer peptide KRAS8-16 … (SEQ …); remark: listed apart in the source
[6] = target: T2, WT KRAS 10-mer peptide (SEQ ID NO: 30) …; remark: listed apart in the source
[7] = target: WT KRAS 9-mer peptide (SEQ ID NO: 31) presented by HLA-A11 on pulsed cells (human, UniProt A*11:01)
[8] = target: HLA-A11 on COS7/A11 cells expressing the KRAS G12D minigene (23-mer SEQ ID NO: 119) (human, UniProt A*11:01)
[9] = target: HLA-A11 on COS7/A11 cells expressing the WT KRAS minigene (23-mer SEQ ID NO: 118) (human, UniProt A*11:01)
[10] = target: HLA-A11 on COS7/A11 cells expressing the KRAS G12V minigene (23-mer SEQ ID NO: 120) (human, UniProt A*11:01)

B1: TRAV12N-3*01/BV4*01 murine anti-KRAS G12D TCR (SEQ ID NOs: 11 and 12) (TCR, V domains shown)
V domain 1: GDSVTQTEGLVTLTEGLPVMLNCTYQTIYSNPFLFWYVQHLNESPRLLLKSFTDNKRTEHQGFHATLHKSSSSFHLQKSSAQLSDSALYYCALRGNAGAKLTFGGGTRLTVRP
V domain 2: ETAVFQTPNYHVTQVGNEVSFNCKQTLGHDTMYWYKQDSKKLLKIMFSYNNKQLIVNETVPRRFSPQSSDKAHLNLRIKSVEPEDSAVYLCASSSRDWSAETLYFGSGTRLTVLE
In the case of B1, the “IFN-γ, PBL + COS7/A11 pulsed at 1 × 10^-6 M” value (“IFN-γ … at 1 × 10^-6 M” below) [1] is reported as 136 pg/mL, the “IFN-γ, PBL + COS7/A11 pulsed at 1 × 10^-7 M” value (from here on “IFN-γ … at 1 × 10^-7 M”) [1] is reported as 95 pg/mL and the “IFN-γ, PBL + COS7/A11 pulsed at 1 × 10^-8 M” value (shortened to “IFN-γ … at 1 × 10^-8 M”) [1] is reported as 99 pg/mL. For the same binder, the “IFN-γ, PBL + COS7/A11 pulsed at 1 × 10^-9 M” value (“IFN-γ … at 1 × 10^-9 M” below) [1] was 90 pg/mL, the “IFN-γ, PBL + COS7/A11 pulsed at 1 × 10^-10 M” value (from here on “IFN-γ … at 1 × 10^-10 M”) [1] was 85 pg/mL and the “IFN-γ, PBL + COS7/A11 pulsed at 1 × 10^-11 M” value (“IFN-γ … at 1 × 10^-11 M” below) [1] was 85 pg/mL. For the same binder, the “IFN-γ, PBL + COS7/A11 pulsed at 1 × 10^-12 M” value (shortened to “IFN-γ … at 1 × 10^-12 M”) [1] was 94 pg/mL, the “IFN-γ, PBL + COS7/A11 pulsed at 1 × 10^-13 M” value (“IFN-γ … at 1 × 10^-13 M” for short) [1] was 115 pg/mL and the “IFN-γ … at 1 × 10^-6 M” value [2] was 97 pg/mL. The “IFN-γ … at 1 × 10^-7 M” value [2] was 83 pg/mL, the “IFN-γ … at 1 × 10^-8 M” value [2] was 86 pg/mL and the “IFN-γ … at 1 × 10^-9 M” value [2] was 88 pg/mL. For the same binder, the “IFN-γ … at 1 × 10^-10 M” value [2] was 88 pg/mL, the “IFN-γ … at 1 × 10^-11 M” value [2] was 86 pg/mL and the “IFN-γ … at 1 × 10^-12 M” value [2] was 96 pg/mL. The “IFN-γ … at 1 × 10^-13 M” value [2] was 97 pg/mL, the “IFN-γ … at 1 × 10^-6 M” value [3] was 87 pg/mL and the “IFN-γ … at 1 × 10^-7 M” value [3] was 91 pg/mL. For the same binder, the “IFN-γ … at 1 × 10^-8 M” value [3] was 72 pg/mL, the “IFN-γ … at 1 × 10^-9 M” value [3] was 90 pg/mL and the “IFN-γ … at 1 × 10^-10 M” value [3] was 90 pg/mL. The “IFN-γ … at 1 × 10^-11 M” value [3] was 95 pg/mL, the “IFN-γ … at 1 × 10^-12 M” value [3] was 83 pg/mL and the “IFN-γ … at 1 × 10^-13 M” value [3] was 112 pg/mL. The “IFN-γ … at 1 × 10^-6 M” value [4] was 78 pg/mL, the “IFN-γ … at 1 × 10^-7 M” value [4] was 88 pg/mL and the “IFN-γ … at 1 × 10^-8 M” value [4] was 102 pg/mL. The “IFN-γ … at 1 × 10^-9 M” value [4] was 99 pg/mL, the “IFN-γ … at 1 × 10^-10 M” value [4] was 95 pg/mL and the “IFN-γ … at 1 × 10^-11 M” value [4] was 86 pg/mL. For the same binder, the “IFN-γ … at 1 × 10^-12 M” value [4] was 102 pg/mL, the “IFN-γ … at 1 × 10^-13 M” value [4] was 98 pg/mL and the “IFN-γ, PBL + Cos7/A11 pulsed at 10^-6 M” value [5] was 125 pg/mL. The “IFN-γ, PBL + Cos7/A11 pulsed at 10^-7 M” value [5] was 86 pg/mL, the “IFN-γ, PBL + Cos7/A11 pulsed at 10^-8 M” value [5] was 90 pg/mL and the “IFN-γ, PBL + Cos7/A11 pulsed at 10^-9 M” value [5] was 92 pg/mL. For the same binder, the “IFN-γ, PBL + Cos7/A11 pulsed at 10^-10 M” value [5] was 95 pg/mL, the “IFN-γ, PBL + Cos7/A11 pulsed at 10^-11 M” value [5] was 88 pg/mL and the “IFN-γ, PBL + Cos7/A11 pulsed at 10^-12 M” value [5] was 91 pg/mL. For the same binder, the “IFN-γ, PBL + Cos7/A11 pulsed at 10^-13 M” value [5] was 84 pg/mL, the “IFN-γ, PBL + Cos7/A11 pulsed at 10^-6 M” value [6] was 82 pg/mL and the “IFN-γ, PBL + Cos7/A11 pulsed at 10^-7 M” value [6] was 77 pg/mL. The “IFN-γ, PBL + Cos7/A11 pulsed at 10^-8 M” value [6] was 85 pg/mL, the “IFN-γ, PBL + Cos7/A11 pulsed at 10^-9 M” value [6] was 102 pg/mL and the “IFN-γ, PBL + Cos7/A11 pulsed at 10^-10 M” value [6] was 88 pg/mL. For the same binder, the “IFN-γ, PBL + Cos7/A11 pulsed at 10^-11 M” value [6] was 81 pg/mL, the “IFN-γ, PBL + Cos7/A11 pulsed at 10^-12 M” value [6] was 76 pg/mL and the “IFN-γ, PBL + Cos7/A11 pulsed at 10^-13 M” value [6] was 92 pg/mL. The “IFN-γ, PBL + Cos7/A11 pulsed at 10^-6 M” value [7] was 90 pg/mL, the “IFN-γ, PBL + Cos7/A11 pulsed at 10^-7 M” value [7] was 96 pg/mL and the “IFN-γ, PBL + Cos7/A11 pulsed at 10^-8 M” value [7] was 95 pg/mL. For the same binder, the “IFN-γ, PBL + Cos7/A11 pulsed at 10^-9 M” value [7] was 88 pg/mL, the “IFN-γ, PBL + Cos7/A11 pulsed at 10^-10 M” value [7] was 95 pg/mL and the “IFN-γ, PBL + Cos7/A11 pulsed at 10^-11 M” value [7] was 84 pg/mL. The “IFN-γ, PBL + Cos7/A11 pulsed at 10^-12 M” value [7] was 105 pg/mL, the “IFN-γ, PBL + Cos7/A11 pulsed at 10^-13 M” value [7] was 103 pg/mL and the “IFN-γ, PBL + COS/A11 minigene transfectant” value [8] was greater than 10000 pg/mL. For the same binder, the “IFN-γ, PBL + COS/A11 minigene transfectant” value [9] was 130 pg/mL and the “IFN-γ, PBL + COS/A11 minigene transfectant” value [10] was 126 pg/mL.
